From patent publication US7067486

Target: PKCβII of mouse brain (UniProt P68404)
Sequence (P68404 other isoform, or with tags, fused parts or gaps): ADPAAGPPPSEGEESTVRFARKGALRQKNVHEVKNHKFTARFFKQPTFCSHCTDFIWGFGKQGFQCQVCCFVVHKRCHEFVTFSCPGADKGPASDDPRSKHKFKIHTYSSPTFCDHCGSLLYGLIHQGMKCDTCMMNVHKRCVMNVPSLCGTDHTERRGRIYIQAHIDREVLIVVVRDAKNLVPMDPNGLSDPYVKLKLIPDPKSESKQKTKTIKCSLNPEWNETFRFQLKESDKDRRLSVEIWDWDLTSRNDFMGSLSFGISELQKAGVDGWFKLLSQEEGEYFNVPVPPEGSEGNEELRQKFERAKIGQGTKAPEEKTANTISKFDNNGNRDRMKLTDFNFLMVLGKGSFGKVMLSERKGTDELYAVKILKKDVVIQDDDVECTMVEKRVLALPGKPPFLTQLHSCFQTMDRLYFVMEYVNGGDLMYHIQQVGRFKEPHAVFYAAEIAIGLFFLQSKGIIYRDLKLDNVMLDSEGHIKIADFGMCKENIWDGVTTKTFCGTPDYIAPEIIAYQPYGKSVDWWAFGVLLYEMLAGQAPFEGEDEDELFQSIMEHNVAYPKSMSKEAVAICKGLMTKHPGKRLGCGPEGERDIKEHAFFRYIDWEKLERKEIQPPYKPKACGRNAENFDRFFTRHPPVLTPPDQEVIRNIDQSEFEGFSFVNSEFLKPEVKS

## human "readthrough" acetylcholinesterase variant AChE-R, recombinant full protein
  PKC activity in brain homogenates (PKC assay kit, Upstate Biotechnology): Note the elevation of PKC activity in the different brain regions in the AChE-R transgenics as compered to FVB/N controls
